Results published in article PMC6508887.

Tests used:
[1] = biological target: 2-oxoglutarate:ferredoxin oxidoreductase from Magnetococcus marinus MC-1, αβ heterodimer (catalytic unit) (Magnetococcus marinus MC-1)
[2] = substrate: O=C(O)CCC(=O)C(=O)O; assay: steady-state 2-oxoglutarate oxidation assay; type: biochemical, Magnetococcus marinus; settings: pH 8.5, apparent KM
[3] = substrate: CC(C)(COP(=O)(O)OP(=O)(O)OC[C@H]1O[C@@H](n2cnc3c(N)ncnc32)[C@H](O)[C@@H]1OP(=O)(O)O)[C@@H](O)C(=O)NCCC(=O)NCCS; assay: steady-state 2-oxoglutarate oxidation assay; type: biochemical, Magnetococcus marinus; settings: pH 8.5, 2-oxoglutarate oxidation direction

Magnetococcus marinus MC-1 ferredoxin 1 (natural protein)
KM of WT MmOGOR for MmFd1, CO2 reduction, pH 7.0 [1]: 1.3 μM

B1: MmOGOR (Magnetococcus marinus MC-1) (protein)
chain 1: MEKKDLIIRVAGEGGEGIISSGDFIAAACARAGLEVYTFKTFPAEIKGGYAMYQVRASSEKLYCQGDTFDVFCAFNGEAYEQNKDKIKPGTAFVYDYPGGDFEPDEIPEGVFAYPIPMSQTAKEMKSYRSKNMVALGALSELFNISENTLKEVLSDKFGKKGEEVLAFNLEAFDKGKALAKALTKADPFRVADPQEPKDVIIMAGNDAVGLGGILGGLEFFSAYPITPATEVAKYVATHLPKCGGDLVQAEDEIASIAQVLGASYAGKKSMTATSGPGLALMSEMLGMAHMSETPCLVVDVQRGGPSTGLPTKHEQSDLFLAIHGGHGDSPRIVLSVEDVKDCISMTVDGLNLAEKYQAPVIVLSDGSLAFSTQTIPRPKPEDFTIINRKTWDGQGTYKRYELTEDNISPMAAPGTPNAKHIATGLEHGETGAPNYSPANHELMHRKRFNKQNSVLDFYKNMEVEGVEGEADVGIITWGSTIGVVREAMQRLTAEGLKVKAMYPKLLWPMPVADYDAFGATCKKVIVPEVNFQGQLSHFIRAETSIKPIPYTICGGLPFTPEMIVNRVKEEIQ
chain 2: MTVEAFHKMENMKPKDYKSEVPTTWCPGCGHFGILNGVYRAMAELGIDSTKFAAISGIGCSSRMPYFVDSYKMHTLHGRAGAVATGTQVARPDLCVVVAGGDGDGFSIGGGHMPHMARKNVNMTYVLMDNGIYGLTKGQYSPTSRPEMTAYTTPYGGPENPMNPLLYMLTYGATYVAQAFAGKPKDCAELIKGAMEHEGFAYVNIFSQCPTFNKIDTVDFYRDLVEPIPEDHDTSDLGAAMELARRPGGKAPTGLLYKTSAPTLDQNLAKIRERLGGHVGYDKNKIIALAKP
Km [2]: 4400 µM | kcat [2]: 30.3 s⁻¹ | kcat/Km [2]: 6900 M⁻¹ s⁻¹ | Km [3]: 6.8 µM | kcat [3]: 24.7 s⁻¹ | kcat/Km [3]: 3.6e+06 M⁻¹ s⁻¹
